For three proteins, Km and Vmax results are on record in paper PMC3386781.

Positions count from the first letter of the chain named. Names and notes keep the numbering of the source.

Substrate in series [1]: N#CS
Kind of series: purified protein. As to conditions: co-substrate SAM; tag removed.

Substrate in series [2]: Br
Kind of series: purified protein. Conditions: co-substrate SAM; tag removed.

B1: AtHTMT1 (AtHOL1; halide/thiocyanate methyltransferase, HTMT) (Arabidopsis thaliana) (protein)
chain: MAEEQQNSDQSNGGNVIPTPEEVATFLHKTVEEGGWEKCWEEEITPWDQGRATPLIVHLVDTSSLPLGRALVPGCGGGHDVVAMASPERFVVGLDISESALAKANETYGSSPKAEYFSFVKEDVFTWRPTELFDLIFDYVFFCAIEPEMRPAWAKSMYELLKPDGELITLMYPITDHVGGPPYKVDVSTFEEVLVPIGFKAVSVEENPHAIPTRKGKEKLGRWKKIN
Turning to B1, in the series “purified protein [1]”, the Km amounted to 0.099 ± 0.020 mM and the Vmax was determined as 0.0436 µmol/min/mg. Moreover, in the series “purified protein [2]”, the Km was found to be 24.87 ± 2.785 mM and the Vmax is 0.0114 µmol/min/mg.

B2: AtHTMT1 (AtHOL1; halide/thiocyanate methyltransferase, HTMT) (Arabidopsis thaliana; V23C) (protein)
chain: B1 chain with V23C
Regarding B2, the figures for the Km in “purified protein [1]” and in “purified protein [2]” were 0.103 ± 0.009 mM and 21.06 ± 1.883 mM, respectively. In addition, the maximum rate (Vmax) in the series “purified protein [1]” came out at 0.0434 µmol/min/mg; in “purified protein [2]”, 0.0124 µmol/min/mg.

B3: AtHTMT1 (AtHOL1; halide/thiocyanate methyltransferase, HTMT) (Arabidopsis thaliana; Y172F) (protein)
chain: B1 chain with Y172F
Regarding B3, in the series “purified protein [1]”, the Km turned out to be 0.141 ± 0.009 mM and the Vmax was determined as 0.046 µmol/min/mg. Further, in the series “purified protein [2]”, the Km worked out at 30.16 ± 2.942 mM and the Vmax came to 0.0114 µmol/min/mg.

What is called Km is the substrate concentration at which the rate is half of its maximum. What is called Vmax is the top rate of the reaction or transport when substrate is in excess.
